From patent US8173596B2, “Prouroguanylin, and synthetic analogs or proteolytic cleavage products derived from it, as therapeutic and diagnostic agents for diseases involving salt and/or fluid homeostasis” (The University of North Carolina at Chapel Hill, priority 2004, dated 2012)
“Also recorded” adds a separate entry of the source.

Columns and labels:
[1] = system: anesthetized rats; experiment: Diuresis and natriuresis induced by infused native proUGn in anesthetized rats; type: in vivo, rat
Protocol: (§1) Experiments were performed with 200-250 g male Sprague Dawley rats (Charles River Laboratories, Wilmington, Mass., United States of America). Rat test diets were obtained from a commercial supplier (Harlan Teklad, Madison, Wis., United States of America). For some experiments, anephric animals were prepared by surgical acute ligation of the renal pedicles. As necessary, animals were anesthetized with Nembutal (60 mg/kg body weight ip).
Na, K, and fluid excretion: Na and K concentrations are analyzed on an IF model 943 flame photometer (Instrumentation Laboratory Company, Lexington, Mass., United States of America). Urine is collected from ureteric canulae or by the use of metabolic cages. Urine volume is determined gravimetrically.
Native proUGn is purified from rat small intestine. Animals are sacrificed by anesthetic overdose, and approximately 20 cm of proximal small intestine is removed. The tissue is cut longitudinally, rinsed with saline, and the mucosal layer is isolated by scraping with a microscope slide. Scraped material is snap-frozen on a metal plate chilled to −78.5° C., then homogenized in 50 mM HEPES, pH 7.4, containing protease inhibitor. The homogenate is cleared by centrifugation at 50,000×g, and the supernate is fractionated sequentially by HPLC on a MonoQ anion exchange column and a VYDAC C-18 reverse-phase column. The HPLC chromatogram of this second chromatography step is shown in FIG. 10a, with a Western blot of the individual HPLC fractions shown in the inset, confirming the presence of proUGn. The purified material was dried to remove the HPLC solvents and resuspended in physiological saline. Recovery is measured by quantitative proUGn immunoassay.
Native proUGn is infused for 60 min into a group of 5 anesthetized rats, the standard infusion containing approximately 180-pmol peptide. Given an estimated rat plasma volume of 10 mL, the infusion rate was approximately […]. Blood pressure, urine production, and sodium excretion were monitored for approximately 40 minutes prior to the infusion, during the infusion, and for approximately 50 minutes after the infusion to measure the effect of the proUGn on diuresis and natriuresis. For comparison, a control group of five rats was infused with regular saline, one rat was infused with a solution of proUGn that had been neutralized by incubation with antibodies 6910 and 6912, and one rat was infused with a solution containing STa at 5 μg/kg/hr.

[2] = target: T1, GC-C (Homo sapiens, UniProt P25092); conditions: other reports (Hamra et al. 1996); cited from earlier work
T1 construct: endogenous in cells; host or cells: T84 cells
T1 sequence (P25092 24-1073): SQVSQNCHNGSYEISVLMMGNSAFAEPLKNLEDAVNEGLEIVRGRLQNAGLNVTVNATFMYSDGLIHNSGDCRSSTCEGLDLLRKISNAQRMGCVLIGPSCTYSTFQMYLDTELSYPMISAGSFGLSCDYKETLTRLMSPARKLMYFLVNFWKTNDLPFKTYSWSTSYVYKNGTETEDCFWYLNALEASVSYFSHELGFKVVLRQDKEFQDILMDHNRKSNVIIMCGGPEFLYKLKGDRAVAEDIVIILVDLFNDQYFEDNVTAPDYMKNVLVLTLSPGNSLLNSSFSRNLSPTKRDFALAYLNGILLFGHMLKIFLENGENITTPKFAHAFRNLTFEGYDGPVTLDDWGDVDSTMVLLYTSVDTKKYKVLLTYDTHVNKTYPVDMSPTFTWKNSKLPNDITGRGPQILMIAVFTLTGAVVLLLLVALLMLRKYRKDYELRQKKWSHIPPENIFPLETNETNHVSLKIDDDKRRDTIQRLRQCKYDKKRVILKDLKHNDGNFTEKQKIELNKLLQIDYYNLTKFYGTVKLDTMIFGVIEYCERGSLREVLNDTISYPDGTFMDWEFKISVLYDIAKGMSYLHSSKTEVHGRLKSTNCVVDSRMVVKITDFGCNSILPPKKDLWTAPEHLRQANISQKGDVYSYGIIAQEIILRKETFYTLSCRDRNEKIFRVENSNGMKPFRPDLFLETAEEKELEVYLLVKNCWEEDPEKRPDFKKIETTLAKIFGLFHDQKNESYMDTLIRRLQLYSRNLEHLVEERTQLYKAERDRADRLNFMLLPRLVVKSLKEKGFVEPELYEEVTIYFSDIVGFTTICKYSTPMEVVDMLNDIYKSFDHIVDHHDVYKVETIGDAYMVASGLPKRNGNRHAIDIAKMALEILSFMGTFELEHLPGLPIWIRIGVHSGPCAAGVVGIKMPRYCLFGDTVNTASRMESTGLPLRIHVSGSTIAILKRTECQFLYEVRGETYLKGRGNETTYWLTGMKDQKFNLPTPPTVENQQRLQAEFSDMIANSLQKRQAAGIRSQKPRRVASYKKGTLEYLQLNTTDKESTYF

[3] = Kidney clearance and tissue fate of infused or bolus-injected 35S-proUGn; type: in vivo, rat
Protocol: as §1
Radioactive proUGn was prepared by coupled in vitro transcription/translation in the presence of ^35S-Cys and ^35S-Met from a cDNA template that encoded full-length proUGn (minus the signal peptide).
A solution containing radioactively-labeled r-proUGn was infused by iv into anesthetized rats for 60 min. The concentration of radioactivity in the plasma and the urine was measured via scintillation counting at timepoints throughout the infusion. […] At the end of the 60 min infusion, tissue samples were collected from the brain, thymus, lung, small intestine, skeletal muscle, spleen, heart, kidney, and liver and assayed for radioactivity by scintillation counting.
To measure the rate of kidney clearance of proUGn, plasma levels of ^35S-proUGn were monitored following bolus injection of the radiolabelled propeptide. Bolus injections (about 10^6 cpm) were given to groups of control (i.e., normal) rats and to anephric rats. At various timepoints after the injection, blood samples were removed and fractionated by HPLC. Radioactivity in each HPLC fraction was measured in a scintillation counter. […] Taken together, the results from these experiments indicate that the kidney appears to be the major route of clearance for proUGn.

[4] = HPLC analysis of proUGn metabolites in plasma and urine; type: in vivo, rat
Protocol: Unless otherwise stated, HPLC conditions for the detection and identification of proUGn and related peptides are as follows: Vydac 218TP™ C-18 reverse-phase column (Grace Vydac, Hesperica, Calif., United States of America); equilibration of the column with H2O with 0.1% TFA for 25 minutes, followed by a 30 minutes gradient from 0% acetonitrile (with 0.1% TFA) to 50% acetonitrile (with 0.1% TFA), 5 min wash with 100% acetonitrile (0.1% TFA).
Plasma samples were taken 2, 5, and 10 min after bolus injection of ^35S-proUGn (about 10^6 cpm) into the carotid artery (n=2 for each timepoint). Urine was collected for 30 min at the end of a 60 min arterial infusion of ^35S-proUGn (n=7). The cpm/μL in the infused material was approximately 100 times lower than the cpm/μL in the solution used for the bolus injection. Plasma and urine samples were applied to the HPLC column and eluted, with the radioactivity in each fraction measured in a scintillation counter.

[5] = steady iv infusion over 60 min, FIG. 8a

Molecule	sodium excretion following proUGn infusion ([1]; 60 min infusion of approximately 180 pmol peptide, after infusion)	sodium excretion ([1]; 60 min infusion, FIG. 10c)	urine flow ([1]; 60 min infusion, anesthetized rats, FIG. 10b)	onset of the response to proUGn ([1]; after beginning infusion)	duration of the response to proUGn ([1]; after terminating the infusion)	sodium excretion before proUGn infusion ([1]; baseline of the infused animals)	natriuretic response compared with responses reported in the literature for UGn18 ([1]; comparison with literature UGn18 infusion)	increase in urine production ([1]; infusing exogenous proUGn into the bloodstream)	activation of GC-C [2]	clearance from plasma, control versus anephric rats ([3]; bolus injection about 10^6 cpm, FIG. 8c)	tissue distribution of radioactivity ([3]; end of 60 min infusion, brain, thymus, lung, small intestine, skeletal muscle, spleen, heart, kidney, liver, FIG. 8b)	plasma level of radioactivity [3, 5]	urine level of radioactivity [3, 5]	integrity in plasma (HPLC of radiolabelled species) ([4]; plasma 2, 5, 10 min after bolus injection, FIG. 9a)	radioactive species in urine (HPLC) ([4]; urine collected 30 min at end of 60 min infusion, FIG. 9b)
prouroguanylin (protein, listed as Rattus norvegicus, propeptide of UGn18) VYIKYHGFQVQLESVKKLNELEEKQMSDPQQQKSGLLPDVCYNPALPLDLQPVCASQEAASTFKALRTIATDECELCINVACTGC	3200 nmol/min	mirrored the increase in urine flow rate	increase in urine flow	20 to 40 min	more than several hours	60 nmol/min	many times greater	≤ 50 fold	inability						
^35S-proUGn: proUGn prepared by coupled in vitro transcription/translation in the presence of 35S-Cys and 35S-Met (protein) VYIKYHGFQVQLESVKKLNELEEKQMSDPQQQKSGLLPDVCYNPALPLDLQPVCASQEAASTFKALRTIATDECELCINVACTGC										cleared more quickly in the control animals; also recorded: cleared rapidly from the plasma of a normal animal	only the kidney samples contained significant levels of radioactivity; also recorded: specific activity of labeling in the kidney is greater than in any other tissue	remained steady; also recorded: stable plasma level of radioactivity	increased dramatically	appears to remain intact in plasma	at least two, and possibly three, proUGn-related products
proguanylin (protein, listed as Rattus norvegicus, propeptide of Gn15) MNAWLLSVLCLLGALAVLVEGVTVQDGDLSFPLESVKQLKHLREVQEPTLMSHKKFALRLPKPVAPELCSQSAFPEALRPLCEKPNAEEILQRLEAIAQDPNTCEICAYAACTGC									inability						
